Experiments:
[1] = biological target: H1 HA of A/California/04/2009, His-tagged soluble HA (competition assay) (Influenza A virus A/California/04/2009 …, UniProt C3W5S1, strain); test: BLI
[2] = biological target: T1, HA head domain of H1 A/Solomon Islands/3/2006 (Influenza A virus A/Solomon …, strain); test: BLI
T1 chain: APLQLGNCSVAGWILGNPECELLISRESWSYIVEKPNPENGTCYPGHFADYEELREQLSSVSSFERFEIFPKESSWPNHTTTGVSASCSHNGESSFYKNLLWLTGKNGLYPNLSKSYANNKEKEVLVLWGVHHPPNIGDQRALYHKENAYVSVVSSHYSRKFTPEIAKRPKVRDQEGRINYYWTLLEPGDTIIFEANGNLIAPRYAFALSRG

[3] = biological target: HA head domain of H3 A/Victoria/361/2011 (Influenza A virus A/Victoria/361/2011 …, UniProt A0A097PF39, strain); test: BLI
[4] = biological target: HA head domain of H7 A/Shanghai/02/2013 (Influenza A virus A/Shanghai/02/2013 …, UniProt R4NN21, strain); test: BLI
[5] = biological target: H7 HA of A/New York/107/2003 (Influenza A virus A/New York/107/2003 …, UniProt B2LVD7, strain); test: ELISA
[6] = biological target: monomeric HA head domain of H5 A/Vietnam/1203/2004 (Influenza A virus A/Vietnam/1203/2004 …, UniProt Q5EP31, strain); test: HDX-MS
[7] = biological target: H1 HA of A/Texas/36/1991 (Influenza A virus A/Texas/36/1991 (H1N1), UniProt Q6WG02, strain); test: ELISA
[8] = biological target: H5 HA of A/Indonesia/5/2005 (Influenza A virus A/Indonesia/5/2005 …, UniProt A5A5L7, strain); test: ELISA
[9] = biological target: H1 HA0 trimer of A/California/04/2009 (uncleaved, baculovirus-expressed ectodomain) (influenza A virus A/California/04/2009 …); test: BLI
[10] = biological target: H7 HA0 trimer of A/Shanghai/02/2013 (uncleaved, baculovirus-expressed ectodomain) (Influenza A virus A/Shanghai/02/2013 …, UniProt R4NN21, strain); test: BLI
[11] = biological target: HA head domain of H3 A/Hong Kong/1/1968 (Influenza A virus A/Hong Kong/1/1968 …, strain); test: crystal structure

Measured: binding result

B1: FluA-20 IgG (hybridoma-generated) (antibody, V domains shown)
VH: QVQLEESGPGLVKPSETLSLTCSVSGVSVTSDIYYWTWIRQPPGKGLEWIGYIFYNGDTNYNPSLKSRVTMSIDTSKNEFSLRLTSVTAADTAVYFCARGTEDLGYCSSGSCPNHWGQGTLVTVSS
VL: DIVMTQSPSSLSASIGDRVTITCRPSQNIRSFLNWFQHKPGKAPKLLIYAASNLQSGVPSRFSGSGSGTEFTLTIRSLQPEDFATYYCQQSYNTPPTFGQGTKVEIK
binds: [1] | [2] | [3] | [4] | [5] | [6]

B2: rFluA-20 IgG (recombinant FluA-20 IgG) (antibody, V domains shown)
VH: QVQLEESGPGLVKPSETLSLTCSVSGVSVTSDIYYWTWIRQPPGKGLEWIGYIFYNGDTNYNPSLKSRVTMSIDTSKNEFSLRLTSVTAADTAVYFCARGTEDLGYCSSGSCPNHWGQGTLVTVSS
VL: DIVMTQSPSSLSASIGDRVTITCRPSQNIRSFLNWFQHKPGKAPKLLIYAASNLQSGVPSRFSGSGSGTEFTLTIRSLQPEDFATYYCQQSYNTPPTFGQGTKVEIK
binds: [5] | [7] | [8]

B3: rFluA-20 Fab (Fab, V domains shown)
VH: QVQLEESGPGLVKPSETLSLTCSVSGVSVTSDIYYWTWIRQPPGKGLEWIGYIFYNGDTNYNPSLKSRVTMSIDTSKNEFSLRLTSVTAADTAVYFCARGTEDLGYCSSGSCPNHWGQGTLVTVSS
VL: DIVMTQSPSSLSASIGDRVTITCRPSQNIRSFLNWFQHKPGKAPKLLIYAASNLQSGVPSRFSGSGSGTEFTLTIRSLQPEDFATYYCQQSYNTPPTFGQGTKVEIK
binds: [9] | [10] | [11]
